B1: FLAG-Clb5-Cdk1 (complex)
chain 1: MGENHDHEQSIKRNSMIYNENERQLCNSNLKILQNKRALSKNDSSSKQQVQDSKPRRALTDVPVNNNPLSQNKRIVAGSKAAKVRREENIRPIVSAVQKRQIYNDRTAAEQEEEEEEEGEDDDAASIVNKKRRIDAEGVSEIVGWQDLDYVEKDDTAMVAEYSAEIFAFLYRRELETLPSHNYLLDKTSKYYLRPSMRTILVDWLVEVHEKFQCYPETLFLSINLMDRFLAKNKVTMNKLQLLAVTSLFIAAKFEEVNLPKLAEYAYITDGAASKNDIKNAEMFMLTSLEFNIGWPNPLNFLRRISKADDYDPVNRNIGKFILEYAYCCHQFIHLPPSTVSAMAMYIARRMTNRNKNELWNGTLQHYSGGIDPIHDEAFQSLCIDLVKDIASSKTHLDSLILKYKKPRYGSVYFQTFKWCTSEMHSNFQNLFNLK
chain 2: not shown
notes: Clb5, S-phase B-type cyclin, S. cerevisiae; Cdk1 (Cdc28), cyclin-dependent kinase, S. cerevisiae; also called Clb5-Cdc28; source: S. cerevisiae strain ySK119, purified

Legend:
[1] = molecular target: T1, origin recognition complex (ORC), wild type, unphosphorylated (S. cerevisiae, UniProt P54784 1-914; P32833 1-620; P54790 1-616; P54791 1-529; P50874 1-479; P38826 …); experiment: co-IP; purified proteins: 5 pmol FLAG-Clb5-Cdk1 and 10 pmol ORC in 20 uL SM buffer with 1 mM ATP, 20 min; 10 pmol GST-Sic1 added to one of two reactions for 5 min; magnetic anti-Flag beads, 3 washes, elution with 3xFLAG peptide, SDS gel; settings: both partners purified
T1 construct: Orc1, subunit of the origin recognition complex, S. cerevisiae; Orc2, subunit of the origin recognition complex, S. cerevisiae; Orc3, subunit of the origin recognition complex, S. cerevisiae; Orc4, subunit of the origin recognition complex, S. cerevisiae; Orc5, subunit of the origin recognition complex, S. cerevisiae; Orc6, subunit of the origin recognition complex, S. cerevisiae; For the …

FLAG-Clb5-Cdk1 = molecular target: B1; experiment: as above; settings: both partners purified
FLAG-Clb5-Cdk1, sequence (P00546 whole entry): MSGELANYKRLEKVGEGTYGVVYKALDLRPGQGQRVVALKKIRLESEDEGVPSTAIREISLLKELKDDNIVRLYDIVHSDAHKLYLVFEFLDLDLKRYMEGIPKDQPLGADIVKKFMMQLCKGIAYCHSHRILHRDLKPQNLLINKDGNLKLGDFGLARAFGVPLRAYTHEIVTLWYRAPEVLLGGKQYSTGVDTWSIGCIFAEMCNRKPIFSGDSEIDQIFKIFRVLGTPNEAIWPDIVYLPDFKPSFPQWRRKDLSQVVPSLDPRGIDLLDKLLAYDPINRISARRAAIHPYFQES

## B1
[1]
  binding result: binds

B2: GST-Sic1 (natural protein, S. cerevisiae, UniProt P38634 1-284, looked up)
chain: MTPSTPPRSRGTRYLAQPSGNTSSSALMQGQKTPQKPSQNLVPVTPSTTKSFKNAPLLAPPNSNMGMTSPFNGLTSPQRSPFPKSSVKRTLFQFESHDNGTVREEQEPLGRVNRILFPTQQNVDIDAAEEEEEGEVLLPPSRPTSARQLHLSLERDEFDQTHRKKIIKDVPGTPSDKVITFELAKNWNNNSPKNDARSQESEDEEDIIINPVRVGKNPFASDELVTQEIRNERKRAMLRENPDIEDVITYVNKKGEVVEKRRLTDEEKRRFKPKALFQSRDQEH
notes: source: E. coli BL21-DE3-Rosetta (plasmid pGEX-Sic1), purified (glutathione elution)
FLAG-Clb5-Cdk1
  binding result: binds

Reference: publication PMC10629557, “Regulation of replication origin licensing by ORC phosphorylation reveals a two-step mechanism for Mcm2-7 ring closing” (Proceedings of the National Academy of Sciences of the …, 2023)
